Source: US20090112150A1, “CAVITATION ENHANCED TREATMENT THROUGH LOCAL DELIVERY” (IMARX THERAPEUTICS, INC., priority 2004, published 2009)

Experiment: Loading of thrombolytic drugs into microbubbles, particle sizing/counting on Accusizer 770
Type: physicochemical
Conditions: MX115 microbubbles
Experimental: MX115 was activated in the vial. Different concentrations of thrombolytic drugs, Streptokinase (Sigma, Milwaukee, Wis.) and t-PA (Genentech, South San Francisco, Calif.), were added to the vial and incubated with the microbubbles for 5 minutes before analyzing the mixtures using a Model 770 Accusizer (Particle Sizing Systems, Santa Barbara, Calif.). […] As much as 5 mg of the drug could be loaded into the MRX 115 microbubbles.

[1] = protein loading in microbubbles 0.1 mg, 5 minutes incubation
[2] = protein loading in microbubbles 1 mg, 5 minutes incubation
[3] = protein loading in microbubbles 5 mg, 5 minutes incubation
[4] = protein loading in microbubbles 0.010 mg, 5 minutes incubation

Substance	Number of particles/mL [1]	Number wt mean [1] [μ]	Volume wt mean [1] [μ]	Number of particles/mL [2]	Number wt mean [2] [μ]	Volume wt mean [2] [μ]	Number of particles/mL [3]	Number wt mean [3] [μ]	Volume wt mean [3] [μ]	Number of particles/mL (After 24 hrs)	Number wt mean (After 24 hrs) [μ]	Volume wt mean (After 24 hrs) [μ]	Number of particles/mL [4]	Number wt mean [4] [μ]	Volume wt mean [4] [μ]
Streptokinase	1.1 × 10^9 particles/mL	1.79	13.6	1.1 × 10^9 particles/mL	1.87	17.1	0.5 × 10^9 particles/mL	2.44	52.9						
Tissue Plasminogen Activator [tPA]										1.3 × 10^9 particles/mL	2.20	24.4	1.1 × 10^9 particles/mL	2.27	23.5
